From the supplement of paper PMC12764529
± gives the half width of the 95% confidence interval.

Columns and labels:
[1] = folding stability dG unfold (combined trypsin and chymotrypsin); higher = more stable
How it was run: (§1)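 Only designs with AlphaFold2 dimer inter-PAE above 15 were retained; each was a mini-protein under 80 residues with no cysteine, in a PA-tagged cDNA display construct. After digestion with trypsin and chymotrypsin and sequencing, K50 was inferred by Bayesian fitting of counts, and unfolding free energy was derived per protease or combined against a sequence-predicted unfolded-state K50 and a shared folded-state K50.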

[2] = folding stability dG unfold from trypsin proteolysis; higher = more stable
How it was run: as §1

[3] = folding stability dG unfold from chymotrypsin proteolysis; higher = more stable
How it was run: as §1

## SAGMELKVEIVAPKEVLLEKVKELEATIKKAFPKVKVEVEAKIEPLEGDEWKATVVIKIEPLPEDEPAESAG [r5_936_TrMRF]
[1]
  folding stability dG unfold: 3.91 ± 0.78 kcal/mol
[2]
  folding stability dG unfold: 3.87 ± 0.27 kcal/mol
[3]
  folding stability dG unfold: 3.59 ± 0.18 kcal/mol

## MSEEERKKAAEERSKPPPVEIKVEVEVVKNEDGEEYLRVRVTVVDPETGEVIEEREFVVRREDLEELLKALS [r1_415_TrROS_Hall]
[1]
  folding stability dG unfold: 3.45 ± 0.27 kcal/mol
[2]
  folding stability dG unfold: 3.7 ± 0.16 kcal/mol
[3]
  folding stability dG unfold: 3.57 ± 0.15 kcal/mol

## SAGSIEIYIIYPPEDPDQPPTEEEIRSIARSLARQLGLPPKDFPIDVEWRRIDPEDGIYVYEITIEFPSAGG [r19_244_TrROS]
[1]
  folding stability dG unfold: 3.27 ± 0.1 kcal/mol
[2]
  folding stability dG unfold: 2.74 ± 0.059 kcal/mol
[3]
  folding stability dG unfold: 3.57 ± 0.062 kcal/mol

## SFTVERNVYRIENPPKLVVNVIITAEDGTPVPPEVVEEAVRELEKAGFPVKKVSVTPLPDGSVLVTVEVDVS [r1_408_TrMRF]
[1]
  folding stability dG unfold: 2.52 ± 0.083 kcal/mol
[2]
  folding stability dG unfold: 2.84 ± 0.1 kcal/mol
[3]
  folding stability dG unfold: 2.13 ± 0.071 kcal/mol

## SAGMTLKEEEFELPDGSRRIRLTFTSEEELAAKLKELGFEKFNPLSPSESVDVTIPPDGVLSESLPKEGSAG [r5_941_JUSTAS]
[1]
  folding stability dG unfold: 1.42 ± 0.11 kcal/mol
[2]
  folding stability dG unfold: 0.651 ± 0.061 kcal/mol
[3]
  folding stability dG unfold: 1.86 ± 0.066 kcal/mol

## SAGGSAGGSADELLDKLLNHKWLRDAMEKAPPGMEEIDIELPDGGKIRIRRTPNGGFRLEPSAGGSAGGSAG [r3_124_TrROS]
[1]
  folding stability dG unfold: 1.76 ± 0.087 kcal/mol
[2]
  folding stability dG unfold: 1.904 ± 0.019 kcal/mol
[3]
  folding stability dG unfold: 1.48 ± 0.081 kcal/mol

## SAGGSANPNGKPWVEVEVSFMIPIDDEDIADALGGPPKPGDWLMITVKIRVYPDGNVEIDINLHPMSAGGSA [r15_91_TrROS]
[1]
  folding stability dG unfold: 3.95 ± 0.19 kcal/mol
[2]
  folding stability dG unfold: 3.96 ± 0.14 kcal/mol
[3]
  folding stability dG unfold: 3.88 ± 0.22 kcal/mol

## SAGGSAGGSAGVVRTDDGREVTVRRTVRVEVRLEITITASEEDREKAAAALERLLRELGLSAGGSAGGSAGG [r17_501_TrROS_Hall]
[1]
  folding stability dG unfold: 2.86 ± 0.16 kcal/mol
[2]
  folding stability dG unfold: 2.68 ± 0.24 kcal/mol
[3]
  folding stability dG unfold: 3.04 ± 0.086 kcal/mol

## SAGGSAGGSAGGSKTKAELFKVGDKLILATYHPDTGKVEIFYPDNSVETLPAEEAEKLFSAGGSAGGSAGGS [r10_1140_TrMRF]
[1]
  folding stability dG unfold: 1.03 ± 0.14 kcal/mol
[2]
  folding stability dG unfold: 1.02 ± 0.052 kcal/mol
[3]
  folding stability dG unfold: 0.957 ± 0.13 kcal/mol

## SAGGSAMVRIEVELENGEKLEIEIEVPEEMTEEELLEKAKELAKELAEKLGIPEAKVKVVKIEVVPSAGGSA [r15_463_TrROS_Hall]
[1]
  folding stability dG unfold: 3.92 ± 0.23 kcal/mol
[2]
  folding stability dG unfold: 4.06 ± 0.16 kcal/mol
[3]
  folding stability dG unfold: 2.92 ± 0.22 kcal/mol

## SAGGSAGGSAGPRIVAFNVPNGKTIPLFAPDGWMIRINIERDPKDGEHKMETEYVPADDISAGGSAGGSAGG [r17_287_TrROS]
[1]
  folding stability dG unfold: -0.419 ± 0.29 kcal/mol
[2]
  folding stability dG unfold: -0.424 ± 0.37 kcal/mol
[3]
  folding stability dG unfold: -0.276 ± 0.44 kcal/mol

## SAGGSAGGSAEVEIEVDKETKELYIKDSNGKVKKIKVKVVKVEVKKPVVTLPKEELSEEELKSAGGSAGGSA [r18_59_TrROS_Hall]
[1]
  folding stability dG unfold: 0.258 ± 0.33 kcal/mol
[2]
  folding stability dG unfold: 0.818 ± 0.084 kcal/mol
[3]
  folding stability dG unfold: -0.357 ± 0.17 kcal/mol

## SLSPSTPISSEEEAKEAAEKLAEEVREELGEDLPIVVDIERKELEDGTIVVKFTFYVPETGEKLLEVEVGSA [r9_794_JUSTAS]
[1]
  folding stability dG unfold: 1.27 ± 0.16 kcal/mol
[2]
  folding stability dG unfold: 1.2 ± 0.097 kcal/mol
[3]
  folding stability dG unfold: 1.56 ± 0.049 kcal/mol

## SAGGRAVLLATFTTPDGSLVLVYEDPATGRVLVVSFDPSTGRVSVLRLRRVPNTGDLFIEDRATFPLSSAGG [r19_249_TrMRF]
[1]
  folding stability dG unfold: 3.97 ± 0.12 kcal/mol
[2]
  folding stability dG unfold: 3.51 ± 0.059 kcal/mol
[3]
  folding stability dG unfold: 4.36 ± 0.12 kcal/mol

## SAGGSIPLSDIKDIEIHPWRHPNNNYPMYRIRIDNGRDMVIFPGAIFEFDPDDGKIEEVKPMPFGDSAGGSA [r2_374_TrROS]
[1]
  folding stability dG unfold: 0.238 ± 0.14 kcal/mol
[2]
  folding stability dG unfold: 0.165 ± 0.22 kcal/mol
[3]
  folding stability dG unfold: 0.222 ± 0.22 kcal/mol

## SAGGGSMVTQTEFTLPDGTKVSESTLPDGTVTTTITDPTNPTVTTSPVRTVSPGPLSPANPALVAALSAGGS [r16_482_JUSTAS]
[1]
  folding stability dG unfold: -0.317 ± 0.1 kcal/mol
[2]
  folding stability dG unfold: -1.09 ± 0.18 kcal/mol
[3]
  folding stability dG unfold: -0.17 ± 0.18 kcal/mol

## SAGGSAGGSGSVEFETDLKDPNIRKAIEEALKEGKKTAVIPFPDGAEGRIVEVEGDKVRVEISSAGGSAGGS [r12_334_TrMRF]
[1]
  folding stability dG unfold: 0.838 ± 0.12 kcal/mol
[2]
  folding stability dG unfold: 0.0322 ± 0.15 kcal/mol
[3]
  folding stability dG unfold: 1.29 ± 0.099 kcal/mol

## SAGGSAGGSAGMKIRIELPGMSPEQIEELAKLIPNVRVSITYDKETNRVYVEIEVSEEDLSAGGSAGGSAGG [r11_862_TrROS_Hall]
[1]
  folding stability dG unfold: 2.88 ± 0.051 kcal/mol
[2]
  folding stability dG unfold: 2.38 ± 0.058 kcal/mol
[3]
  folding stability dG unfold: 3.21 ± 0.052 kcal/mol

## SAGGSAGGSIEELAKKTNIIEVKVTEFPNPKFKKAFIVYKNPKENKYKKGIYIFYDKKDGKLESAGGSAGGS [r12_133_TrMRF]
[1]
  folding stability dG unfold: 0.313 ± 0.23 kcal/mol
[2]
  folding stability dG unfold: -0.185 ± 0.35 kcal/mol
[3]
  folding stability dG unfold: 0.544 ± 0.43 kcal/mol

## SAGGSASIGEELAKELFPDLPLKVEPKEVPLEDGKTETVVTATFPDGKKVTITFEGDKIVEVTEVESAGGSA [r15_417_JUSTAS]
[1]
  folding stability dG unfold: 0.718 ± 0.11 kcal/mol
[2]
  folding stability dG unfold: 0.445 ± 0.095 kcal/mol
[3]
  folding stability dG unfold: 0.994 ± 0.074 kcal/mol

## SAGGSAGGSAGGMMVNLKVTREKLPNGKYRVTFTLPNGEEVVVEVESEEEAEAAAKEIAASAGGSAGGSAGG [r11_955_JUSTAS]
[1]
  folding stability dG unfold: 3.95 ± 0.084 kcal/mol
[2]
  folding stability dG unfold: 3.2 ± 0.053 kcal/mol
[3]
  folding stability dG unfold: 4.23 ± 0.052 kcal/mol

## SAGTIRLNGLELEVDIEWWPEHGYITINVTITWPNGRTMMMQIIIKVKPVKPPPPPPPKYDPDNGKPKASAG [r5_816_TrROS]
[1]
  folding stability dG unfold: 3.68 ± 0.34 kcal/mol
[2]
  folding stability dG unfold: 2.97 ± 0.1 kcal/mol
[3]
  folding stability dG unfold: 4.38 ± 0.25 kcal/mol

## SAGGMLGFRAETDLFVEPIPPGAEVEPLRIGDRLLLIVRHPDGSYTINLFTPVRPLPVPPAFSTANAASAGG [r13_804_TrMRF]
[1]
  folding stability dG unfold: 1.68 ± 0.051 kcal/mol
[2]
  folding stability dG unfold: 1.6 ± 0.036 kcal/mol
[3]
  folding stability dG unfold: 1.64 ± 0.069 kcal/mol

## SAGGSAGGSAGGSDKGQPRVEIPMPFFMPNPNYVIRITMEIDLDPNGQIREIDVEVYKFSAGGSAGGSAGGS [r4_75_TrROS]
[1]
  folding stability dG unfold: 4.08 ± 0.14 kcal/mol
[2]
  folding stability dG unfold: 3.21 ± 0.096 kcal/mol
[3]
  folding stability dG unfold: 4.67 ± 0.1 kcal/mol

## SAGGSAGGMIKITITVPPGVSPEFVREKIAPLGVEVLSVEPLPDGTHRVTIEIPPEITKNPELLSAGGSAGG [r6_470_JUSTAS]
[1]
  folding stability dG unfold: 1.42 ± 0.044 kcal/mol
[2]
  folding stability dG unfold: 1.68 ± 0.051 kcal/mol
[3]
  folding stability dG unfold: 1.18 ± 0.023 kcal/mol

## SAGGSAGGSAPPLKILRPEATVHPDGGVTVVAELEGGYLVVETVTFDPETGTASSSVEIVPLDSAGGSAGGS [r20_15_TrMRF]
[1]
  folding stability dG unfold: 0.705 ± 0.047 kcal/mol
[2]
  folding stability dG unfold: -0.813 ± 0.12 kcal/mol
[3]
  folding stability dG unfold: 1.03 ± 0.015 kcal/mol

## SAGGSAGGSAGWFTIMFKADSPEKVEEIVDELAQENGLEVEIERNPGEPGYIMITIKPPPSAGGSAGGSAGG [r11_797_TrROS]
[1]
  folding stability dG unfold: 1.27 ± 0.12 kcal/mol
[2]
  folding stability dG unfold: 1.47 ± 0.054 kcal/mol
[3]
  folding stability dG unfold: 0.974 ± 0.21 kcal/mol

## SAGGMLPLVVKVKTPDGEEYTFVVAYNPETSELWLPLPKEPTWRNVPLTEASSIPEFQIVEARPLALESAGG [r13_994_TrMRF]
[1]
  folding stability dG unfold: 0.761 ± 0.087 kcal/mol
[2]
  folding stability dG unfold: 0.348 ± 0.056 kcal/mol
[3]
  folding stability dG unfold: 0.943 ± 0.064 kcal/mol

## SAGGSAGGSAGGGMSFKKRKGSISLTLRVTLTLPNGTPATLDIELELEEETVEPVYPELESAGGSAGGSAGG [r7_926_JUSTAS]
[1]
  folding stability dG unfold: 4.19 ± 0.24 kcal/mol
[2]
  folding stability dG unfold: 2.87 ± 0.086 kcal/mol
[3]
  folding stability dG unfold: 4.76 ± 0.14 kcal/mol

## ADPDVKVEVEFEVLPDGRLRVTAVDPDTGVVVEVEAPVDGAGPVTVRVRVRVFDPETGEVSTFEAEFTLPLS [r1_45_TrMRF]
[1]
  folding stability dG unfold: 4.14 ± 0.17 kcal/mol
[2]
  folding stability dG unfold: 3.71 ± 0.12 kcal/mol
[3]
  folding stability dG unfold: 4.33 ± 0.15 kcal/mol

## SAGGSAKIEITIFIPGMSEEEVKKLAEELAEELRKKGLSDEEIKEIKIKVYKVPVYKTEDGKLVKVSAGGSA [r15_684_TrROS_Hall]
[1]
  folding stability dG unfold: 1.44 ± 0.089 kcal/mol
[2]
  folding stability dG unfold: 0.884 ± 0.046 kcal/mol
[3]
  folding stability dG unfold: 1.82 ± 0.059 kcal/mol
